Measurements as given in patent US20230151373A1, “CHIMERIC POLYPEPTIDE FOR REGULATING IMMUNE CELLS” (STICHTING HET NEDERLANDS KANKER INSTITUUT-ANTONI VAN …, priority 2019, published 2023).

Target: CD3 ζ chain (phosphorylated ITAMs) of the TCR complex (human) (UniProt P20963)
Assay: cell-based or functional assay

Sequence of CD3 ζ chain (phosphorylated ITAMs) of the TCR complex (human) (P20963 22-164, one chain of several): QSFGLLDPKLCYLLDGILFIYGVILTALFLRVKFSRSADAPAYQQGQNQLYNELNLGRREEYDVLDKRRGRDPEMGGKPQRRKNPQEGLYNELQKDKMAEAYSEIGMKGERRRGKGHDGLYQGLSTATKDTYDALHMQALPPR

reduction in percentage responding cells (IFNγ), CDK4 TCR T cells co-cultured with 10 nM peptide loaded T2 cells, relative to vector control: 104 fold
reduction in percentage responding cells (IL-2), CDK4 TCR T cells co-cultured with 10 nM peptide loaded T2 cells, relative to vector control: 110 fold
reduction in percentage responding cells (TNFα), CDK4 TCR T cells co-cultured with 10 nM peptide loaded T2 cells, relative to vector control: 81 fold
reduction in percentage responding cells (cell surface LAMP1), CDK4 TCR T cells co-cultured with 10 nM peptide loaded T2 cells, relative to vector control: 40 fold
Substance: Zap70 2×SH2 domains-PD1 tail fusion protein (from UniProt P43403 1-264; Q15116 192-288)
